Results as given in paper PMC6061855 (Nucleic Acids Research, 2018).

B2: Full-length E. coli RppH (RNA pyrophosphohydrolase) (enzyme, UniProt P0A776 1-176, looked up)
chain: MIDDDGYRPNVGIVICNRQGQVMWARRFGQHSWQFPQGGINPGESAEQAMYRELFEEVGLSRKDVRILASTRNWLRYKLPKRLVRWDTKPVCIGQKQKWFLLQLVSGDAEINMQTSSTPEFDGWRWVSYWYPVRQVVSFKRDVYRRVMKEFASVVMSLQENTPKPQNASAYRRKRG

Experiments:
[1] = target: His6-SUMO-DapF (E. coli DapF with uncleaved N-terminal hexahistidine and SUMO tags) (E. coli) (UniProt P0A6K1); assay: BLI
[2] = target: EcRppH(1–158)AA, truncated variant of E. coli RppH (E. coli) (UniProt P0A776); assay: BLI
[3] = target: T1, His6-SUMO-DapF (E. coli DapF with uncleaved N-terminal hexahistidine and SUMO tags) (E. coli, UniProt P0A6K1 1-274); assay: cross-linking
T1 sequence: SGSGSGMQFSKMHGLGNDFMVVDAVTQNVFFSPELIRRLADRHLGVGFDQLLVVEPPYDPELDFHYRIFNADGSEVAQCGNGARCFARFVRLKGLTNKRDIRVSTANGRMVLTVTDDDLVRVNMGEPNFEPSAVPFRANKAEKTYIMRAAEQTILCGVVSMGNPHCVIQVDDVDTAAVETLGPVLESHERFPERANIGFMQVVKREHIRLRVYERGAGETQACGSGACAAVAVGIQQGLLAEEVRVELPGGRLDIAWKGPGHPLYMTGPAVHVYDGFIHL

[4] = target: T2, DapFm (E. coli DapF with Y268A and R36A mutations) (E. coli, UniProt P0A6K1 1-274, Y268A | R36A)
T2 sequence: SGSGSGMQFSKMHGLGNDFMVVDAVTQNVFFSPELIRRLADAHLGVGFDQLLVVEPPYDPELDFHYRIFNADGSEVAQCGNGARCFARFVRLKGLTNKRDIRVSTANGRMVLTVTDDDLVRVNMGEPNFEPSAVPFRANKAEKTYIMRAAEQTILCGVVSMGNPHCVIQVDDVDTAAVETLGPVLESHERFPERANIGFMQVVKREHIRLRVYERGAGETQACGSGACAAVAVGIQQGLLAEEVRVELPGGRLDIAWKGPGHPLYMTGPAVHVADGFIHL

[5] = target: T2, DapFm (E. coli DapF with Y268A and R36A …); assay: BLI
[6] = target: B2; assay: BLI
[7] = target: T3, RppH^R134A (E. coli RppH mutant), His6-SUMO-tagged (E. coli, UniProt P0A776 1-176, R134A); assay: BLI
T3 sequence (looked up): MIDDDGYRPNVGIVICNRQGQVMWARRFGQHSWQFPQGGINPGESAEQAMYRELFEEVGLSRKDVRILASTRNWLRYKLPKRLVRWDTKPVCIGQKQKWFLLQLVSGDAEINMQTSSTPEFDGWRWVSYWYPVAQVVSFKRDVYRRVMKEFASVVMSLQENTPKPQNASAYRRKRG

[8] = target: T4, His6-SUMO-tagged E. coli RppH (E. coli, UniProt P0A776 1-176); assay: BLI
T4 sequence (looked up): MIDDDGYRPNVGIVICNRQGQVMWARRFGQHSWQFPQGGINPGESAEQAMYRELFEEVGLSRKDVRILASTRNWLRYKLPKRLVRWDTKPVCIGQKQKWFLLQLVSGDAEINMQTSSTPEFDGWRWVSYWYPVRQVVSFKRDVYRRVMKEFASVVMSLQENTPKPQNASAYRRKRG

RppHt;DapFm = target: T5, RppHt;DapFm (Escherichia coli;Escherichia coli, UniProt P0A776;P0A6K1 1-158;1-274, |R36A;Y268A); assay: X-ray crystallography
T5 sequence 1: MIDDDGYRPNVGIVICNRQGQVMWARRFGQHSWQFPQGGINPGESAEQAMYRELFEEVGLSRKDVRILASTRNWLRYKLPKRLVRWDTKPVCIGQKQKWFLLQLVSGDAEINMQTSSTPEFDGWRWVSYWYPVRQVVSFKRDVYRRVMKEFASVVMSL
T5 sequence 2: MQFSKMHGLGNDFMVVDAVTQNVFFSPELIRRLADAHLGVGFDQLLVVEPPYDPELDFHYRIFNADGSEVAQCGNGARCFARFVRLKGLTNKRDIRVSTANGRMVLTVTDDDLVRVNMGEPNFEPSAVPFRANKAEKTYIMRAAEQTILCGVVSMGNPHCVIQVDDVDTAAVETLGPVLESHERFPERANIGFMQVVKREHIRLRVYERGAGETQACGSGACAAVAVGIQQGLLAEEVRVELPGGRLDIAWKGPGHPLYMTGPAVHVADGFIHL

Molecule: RppH^W130A,R145A (E. coli RppH double mutant) (from UniProt P0A776 1-176) (enzyme)
- Kd [1]: 1900 nM

B1: DapFm (E. coli DapF with Y268A and R36A mutations) (enzyme)
chain: SGSGSGMQFSKMHGLGNDFMVVDAVTQNVFFSPELIRRLADAHLGVGFDQLLVVEPPYDPELDFHYRIFNADGSEVAQCGNGARCFARFVRLKGLTNKRDIRVSTANGRMVLTVTDDDLVRVNMGEPNFEPSAVPFRANKAEKTYIMRAAEQTILCGVVSMGNPHCVIQVDDVDTAAVETLGPVLESHERFPERANIGFMQVVKREHIRLRVYERGAGETQACGSGACAAVAVGIQQGLLAEEVRVELPGGRLDIAWKGPGHPLYMTGPAVHVADGFIHL
- Kd [2]: 6 nM

Molecule: B2
- stoichiometry N [3]: 1 RppH per DapF (printed as 2:2)
- stoichiometry N [4]: 1 RppH per DapFm (printed as 1:1)
- Kd [5]: 7.5 nM

B3: DapF V19S-F58S (E. coli DapF double mutant) (enzyme)
chain: SGSGSGMQFSKMHGLGNDFMVVDASTQNVFFSPELIRRLADRHLGVGFDQLLVVEPPYDPELDSHYRIFNADGSEVAQCGNGARCFARFVRLKGLTNKRDIRVSTANGRMVLTVTDDDLVRVNMGEPNFEPSAVPFRANKAEKTYIMRAAEQTILCGVVSMGNPHCVIQVDDVDTAAVETLGPVLESHERFPERANIGFMQVVKREHIRLRVYERGAGETQACGSGACAAVAVGIQQGLLAEEVRVELPGGRLDIAWKGPGHPLYMTGPAVHVYDGFIHL
- fold reduction of the binding affinity against wild-type DapF [6]: 59 fold

B4: DapF F58S-L89S (E. coli DapF double mutant) (enzyme)
chain: SGSGSGMQFSKMHGLGNDFMVVDAVTQNVFFSPELIRRLADRHLGVGFDQLLVVEPPYDPELDSHYRIFNADGSEVAQCGNGARCFARFVRLKGSTNKRDIRVSTANGRMVLTVTDDDLVRVNMGEPNFEPSAVPFRANKAEKTYIMRAAEQTILCGVVSMGNPHCVIQVDDVDTAAVETLGPVLESHERFPERANIGFMQVVKREHIRLRVYERGAGETQACGSGACAAVAVGIQQGLLAEEVRVELPGGRLDIAWKGPGHPLYMTGPAVHVYDGFIHL
- fold reduction of the binding affinity against wild-type DapF [6]: 290 fold

B5: DapF V19S-L89S (E. coli DapF double mutant) (enzyme)
chain: SGSGSGMQFSKMHGLGNDFMVVDASTQNVFFSPELIRRLADRHLGVGFDQLLVVEPPYDPELDFHYRIFNADGSEVAQCGNGARCFARFVRLKGSTNKRDIRVSTANGRMVLTVTDDDLVRVNMGEPNFEPSAVPFRANKAEKTYIMRAAEQTILCGVVSMGNPHCVIQVDDVDTAAVETLGPVLESHERFPERANIGFMQVVKREHIRLRVYERGAGETQACGSGACAAVAVGIQQGLLAEEVRVELPGGRLDIAWKGPGHPLYMTGPAVHVYDGFIHL
- fold reduction of the binding affinity against wild-type DapF [6]: 77 fold

B6: E. coli DapF (diaminopimelate epimerase) bearing six additional residues (SGSGSG) at the amino terminus (enzyme)
chain: SGSGSGMQFSKMHGLGNDFMVVDAVTQNVFFSPELIRRLADRHLGVGFDQLLVVEPPYDPELDFHYRIFNADGSEVAQCGNGARCFARFVRLKGLTNKRDIRVSTANGRMVLTVTDDDLVRVNMGEPNFEPSAVPFRANKAEKTYIMRAAEQTILCGVVSMGNPHCVIQVDDVDTAAVETLGPVLESHERFPERANIGFMQVVKREHIRLRVYERGAGETQACGSGACAAVAVGIQQGLLAEEVRVELPGGRLDIAWKGPGHPLYMTGPAVHVYDGFIHL
- fold reduction of the binding affinity against wild-type RppH [7]: 2 fold

B7: DapF^V19S,F58S,L89S (E. coli DapF triple mutant) (enzyme)
chain: SGSGSGMQFSKMHGLGNDFMVVDASTQNVFFSPELIRRLADRHLGVGFDQLLVVEPPYDPELDSHYRIFNADGSEVAQCGNGARCFARFVRLKGSTNKRDIRVSTANGRMVLTVTDDDLVRVNMGEPNFEPSAVPFRANKAEKTYIMRAAEQTILCGVVSMGNPHCVIQVDDVDTAAVETLGPVLESHERFPERANIGFMQVVKREHIRLRVYERGAGETQACGSGACAAVAVGIQQGLLAEEVRVELPGGRLDIAWKGPGHPLYMTGPAVHVYDGFIHL
- fold decrease of binding against wild-type DapF [8]: ~5800 fold

B8: ppcpAGU (ssRNA)
RNA: AGU
modifications: 5' triphosphate analog ppcpA (non-natural bridging group, from ppcpA starter nucleotide)
- binding result (RppHt;DapFm): binds
